Assay results reported in the supplement of paper PMC9170038.

Tested on: MS2 coat protein
Assay: apparent KD of MS2 coat protein; designed switch direction (-1 OFF switch, 1 ON switch): -1; higher = weaker reporter binding
In short: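 Transcription of designed RNA switches on Illumina chips was done by stalled E. coli RNA polymerase. SNAP-549-labelled MS2 coat protein was then titrated in doubling steps from 0.7 or 1.5 nM to 3 µM, with steps of 0.8–1.5 h at the lowest and 10–20 min at the highest concentration. The per-design median over clusters of curve-fitted normalised fluorescence is reported as apparent KD.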

[1] = Eterna round: R95, input ligand: microRNA oligo, concentration not stated
[2] = Eterna round: R95, input ligand: FMN 200 uM
[3] = Eterna round: R95, input ligand: none
[4] = input ligand: microRNA oligo, concentration not stated

Sequence	apparent KD of MS2 coat protein [1]	apparent KD of MS2 coat protein [2]	apparent KD of MS2 coat protein [3]	apparent KD of MS2 coat protein (input ligand: FMN 200 uM)	apparent KD of MS2 coat protein [4]	apparent KD of MS2 coat protein (input ligand: none)
AUGUUACAUGAGGAUCACCCAUGUCAGGAUAUCUAUCAUAGCAUAGAAAUAUGCGGGUAGAGAAGGGACUAUCC [ChP Ext 10-04-2015 #5] (puzzle: Exclusion 1)	14.7 nM					
UUUAUGUCAGGAUAUGAUUAGAUCUACUUUUGUAGAUCUAAUCAGAAGGGACAUGAGGAUCACCCAUGUUUUUU [Ex4 - 3 - 15] (puzzle: Exclusion 4)	41.2 nM					
AUAUUAACAUAGGAUAUCGAAUUUAUCAUUUAACGAGAAGGAUGAACAUGAGGAUCACCCAUGUGGUAUCAUGG [Mat - Exclusion 6 - JL Mod - D1] (puzzle: Exclusion 6)	144 nM	171 nM	249 nM			
GUCAGGAAUGUAGGAUAUCUGCACGUGUAGUGCAGAGAAGGACAUGAGGAUCACCCAUGUAUAGUAGCUUCGGCUACACCUGAC [ENG1-A3] (Eterna round: R96, puzzle: Exclusion NG 1)				18 nM	9.93 nM	18.1 nM
UUUAAUUUUUUUUUUUUACAAGCUUUUUGCUCGUCUUAUACAUGAGGAUCACCCAUGUAGGUGGAGGGUAAAUUAUC [JMF 90] (puzzle: Sensor v3, turn-off variant 2)	44.1 nM	15.6 nM	13.1 nM			
ACAUGUAAUGCAGGAUAUCGGACACAUGAGGAUCACCCAUGUGACCUGAGGUAUUGCUAAGAGUCUGAGAAGGGUAUGUACAUG [Ex NG2 #51] (Eterna round: R96, puzzle: Exclusion NG 2)				28.7 nM	15.7 nM	20.4 nM
AAAACGUGAGGAUAUCCAAUAUAUGACAUGAGGAUCACCCAUGUUUCCACUCGUACCUCCGGAGAAGGCACAAUUA [Ex5 #77] (Eterna round: R97, puzzle: Exclusion 5)				46.4 nM		43 nM
UCUCCCUGGCAAGGAUAUCCUGUGCGGUUCCGGCUCGUGUCUGUUACAUGAGGAUCACCCAUGUGGGAGAAGGUGCCUGUGGCU [Design 92] (Eterna round: R96, puzzle: Exclusion NG 2)				346 nM	93.7 nM	143 nM
CGAUGUUAUGUCAGGAUAUACAUUGCGAAAGCAAUGUAGAAGGGACAUGAGGAUCACCCAUGUCCUAACCAUCG [Omei A 3] (puzzle: Brourd's mod of Exclusion 4)	12.7 nM					
CUGCGUCGUGUUAGGAUAUCCAGCGGUGCGCGCCAGGAGAAGGAACAUGAGGAUCACCCAUGUAAACCGAUGGC [Aratte] (puzzle: Brourd's mod of Exclusion 4)	11 nM					
AGAAGUAGUAACCGAUCCUACAUGAGGAUCACCCAUGUAGCGGGACGUGCACGCGAAGCUCGUCAGACUACCAGAUG [salish99_TOv1_r3_024] (puzzle: Sensor v3, turn-off variant 1)	26.7 nM	27.2 nM	28.6 nM			
UCGCUCCGUGUAGGAUAUCGCCGUUCCACUCGGCGAGAAGGACAUGAGGAUCACCCAUGUAUGUUAUUAUCACGUGUGGCGCGC [Design 53] (Eterna round: R96, puzzle: Exclusion NG 1)				32 nM	16.5 nM	18.1 nM
GUCGUGCGGCUUUGCUGUGCGGGUACAUGAGGAUCACCCAUGUAGGAUAUGGUACGCUUUGCGUGCCAGAAGGGCGUGCGUUGG [salish99_ExNG3_r04_008] (Eterna round: R96, puzzle: Exclusion NG 3)				38.4 nM	26.3 nM	36.6 nM
GAUCAUGCAGGAUAUACAUGAACCAUGAAAACAUGGUUUUCACAUGAGGAUCACCCAUGUAGAAGGGCAUGAUC [Omei Ex2 A7] (Eterna round: R97, puzzle: Exclusion 2)				183 nM		56.7 nM
